Usually IC50 stands for the point on the concentration scale where inhibition reaches its midpoint. Read a high IC50 as weaker potency in that assay.

The target of data set [1] is T1, autotaxin (Homo sapiens, UniProt Q13822).
T1 construct: His; purchased R&D
In words: Biacore surface plasmon resonance, autotaxin immobilized on CM4 chip, nucleic acid as analyte. The note with it: maximum RU relative to SEQ ID NO: 22. The format is binding.

Data set [2] concerns the target T1, autotaxin. In words: NPP2 inhibitory assay (pNP-TMP substrate). Format: biochemical. The note with it: mean of 2-3 measurements ± standard deviation, >1.0 = no inhibitory activity up to 1.0 μM.
Description: Whether an aptamer inhibits the enzyme activity of autotaxin can be evaluated, for example, by the following test. As a substrate of autotaxin, phosphodiester bond-containing synthetic substrate p-nitrophenyl thymidine 5′-monophosphate (pNP-TMP) (SIGMA) is used. A phosphodiester bond is cleaved by hydrolysis, and p-nitrophenol is liberated. The p-nitrophenol develops a yellow color, and the color is detected. For the assay, a 96-well plate (96-Well EIAsurasshuRIA Polystyrene Plates, Costar) was used, and the amount of the reaction mixture was 200 μL. Nucleic acid was prepared in solution A (see below-mentioned Example 1) (100 μL), pNP-TMP (20 μL) adjusted to 10 mM in the reaction mixture A was added, and the mixture was stirred well and heated at 37° C. for 5 min. On the other hand, 6 ng of autotaxin (Recombinant Human, manufactured by R&D) diluted with solution A was prepared (80 μL), and heated at 37° C. for 5 min. After heating, they were mixed to start an enzyme reaction. The final autotaxin concentration in the reaction solution was 0.3 nM, and the final substrate concentration was 1 mM. A plate containing the reaction mixture was heated at 37° C. for 24 hr, placed in a microplate reader SpectraMax190 (manufactured by Molecular Devices) and the absorbance was determined at wavelength 405 nm. The absorbance when nucleic acid is not added as 100% (A0), an enzyme activity rate was determined from the absorbance (A) of each test substance and according to the following formula.
Enzyme activity rate=(A/A0)×100
(§1) The concentration (IC50) of an inhibitor necessary for inhibiting the enzyme activity by 50% was determined.
Whether these nucleic acids show an autotaxin inhibitory activity was evaluated by the following method. As a substrate of autotaxin, phosphodiester bond-containing synthetic substrate p-nitrophenyl thymidine 5′-monophosphate (pNP-TMP) (SIGMA) was selected (hereinafter to be referred to as NPP2 inhibitory assay). A phosphodiester bond is cleaved by hydrolysis, and p-nitrophenol is liberated. The p-nitrophenol develops a yellow color, and the color is detected. For the assay, a 96-well plate (96-Well EIA/RIA Polystyrene Plates, Costar) was used, and the amount of the reaction mixture was 200 μL. As the reaction mixture, solution A was used. Nucleic acids were prepared in solution A (100 μL), pNP-TMP (20 μL) adjusted to 10 mM in the reaction mixture A was added, and the mixture was stirred well and heated at 37° C. for 5 min. On the other hand, 6 ng of autotaxin diluted with solution A was prepared (80 μL), and heated at 37° C. for 5 min. After heating, they were mixed to start enzyme reaction. The final autotaxin concentration in the reaction solution was 0.3 nM, and the final substrate concentration was 1 mM. A plate containing the reaction mixture was heated at 37° C. for 24 hr, placed in a microplate reader SpectraMax190 (manufactured by Molecular Devices) and the absorbance was determined at wavelength 405 nm. The absorbance when nucleic acids are not added as 100% (A0), an […] was determined from the absorbance (A) of each test substance and according to the following formula.
as §1

Data set [3] has as its target T1, autotaxin. In words: Biacore surface plasmon resonance, nucleic acid immobilized on SA chip, autotaxin as analyte. The format is binding. The note with it: nucleic acid immobilized about 1500 RU, autotaxin 0.02 μM as analyte; maximum RU relative to SEQ ID NO: 10. On the procedure:
Biacore T100 manufactured by GE Healthcare is used for the measurement of binding strength. In one measurement method, an aptamer is first immobilized on a sensorchip. The immobilization amount is set to about 1500 RU. An autotaxin solution as an analyte prepared to 0.020 μM is injected by 20 μL, and binding of the autotaxin to the aptamer is detected.
All nucleic acids shown in SEQ ID NOs: 4-10 were produced by chemical synthesis. The binding activity of these nucleic acids to autotaxin was evaluated by the surface plasmon resonance method. For the measurement, Biacore T100 manufactured by GE Healthcare was used. The SA chips with streptavidin immobilized thereon were used as the sensor chips. Binding thereto was about 1500 RU of 16 nucleotide Poly dT of which biotin was bound to the 5′-terminus. The nucleic acids used as a ligand were added with Poly A (16 nucleotides) to the 3′-terminus, and were immobilized on SA chips by T-A annealing. The nucleic acids (20 μL) were injected at a flow rate of 20 μL/min to immobilize about 1500 RU of the nucleic acids. An autotaxin for analyte was prepared at 0.02 μM, and 20 μL thereof was injected. As a running buffer, solution A (mixed solution of 145 mM sodium chloride, 5.4 mM potassium chloride, 1.8 mM calcium chloride, 0.8 mM magnesium chloride, 20 mM Tris (pH 7.6), 0.05% Tween20) was used.
Background: Surface plasmon resonance follows binding to a sensor surface in real time, without labels.

Where [4] appears, read: Table 1, autotaxin 0.3 nM, pNP-TMP 1 mM, 37° C. 24 hr.

B1: 22 (nucleic acid)
chain: ACACTCACAGGCGCTGGCCGGAACCGTGCATATGGTCGCCAGCACATCGTGCATGGCCGCTAGT
modifications: aptamer; DNA, backbone and methylation of C not given here
For the molecule B1, the “Binding activity by Biacore” value in the data set with autotaxin [1] is listed as “+ (not less than that)”. The molecule further showed an IC50 with autotaxin [2] (Table 3) of 30 ± 11 nM.

B2: 24 (nucleic acid)
chain: ACACTCACAGGCGCTGGCGAGTCGGAACCGAGCCGATTGGTCACTCGCGTGCATGGCCGCTAGT
modifications: aptamer; DNA, backbone and methylation of C not given here
In the case of B2, the “Binding activity by Biacore” value with autotaxin [1] is given as “+ (not less than that)”. Further, inhibition in the data set with autotaxin [2] (Table 3) was half-maximal at 32 ± 4.2 nM (IC50).

B3: 8 (nucleic acid)
chain: GTGGTCTAGCTGTACTCCGAAAGCCGGAACCGTGCCAATGGTCGCTACTTCAGCTCCCCACAGTCAACGAGCTA
modifications: aptamer; DNA, backbone and methylation of C not given here
Turning to B3, in the data set with autotaxin [3], the “Binding activity by Biacore” value is reported as “+ (not less than that)”. In addition, in the data set with autotaxin [2] (setting [4]), half-maximal inhibition (IC50) required 10 ± 2 nM.

B4: 21 (nucleic acid)
chain: ACACTCACAGGCGCTGGCCACCACTGCACCGGAACCGCGAATGTGGTCGTGCATGGCCGCTAGT
modifications: aptamer; DNA, backbone and methylation of C not given here
Consider B4, for which the “Binding activity by Biacore” value with autotaxin [1] was “+ (not less than that)”. In the data set with autotaxin [2] (Table 3), the midpoint of inhibition, the IC50, lay at 28 ± 11 nM.

B5: 9 (nucleic acid)
chain: GTGGTCTAGCTGTACTCAGGCCGGAACCGGTGAAATTGGTCGCCTAATAAGCGAAATCCACAGTCAACGAGCTA
modifications: aptamer; DNA, backbone and methylation of C not given here
As for B5, the “Binding activity by Biacore” value in the data set with autotaxin [3] is “+ (not less than that)”. The molecule further yielded an IC50 in the data set with autotaxin [2] (setting [4]) of 36 ± 4 nM.

B6: 25 (nucleic acid)
chain: ACACTCACAGGCGCTGGCGACGTCGGAACCGTGTACCATGGTCACGTCGTGCATGGCCGCTAGT
modifications: aptamer; DNA, backbone and methylation of C not given here
For B6, the “Binding activity by Biacore” value with autotaxin [1] is recorded as “+ (not less than that)”. In addition, the IC50 with autotaxin [2] (Table 3) is 31 ± 5.7 nM.

B7: 5 (nucleic acid)
chain: GTGGTCTAGCTGTACTCATGGACGGAACCAGAATACTTTTGGTCTCCATTGAGTACGCCACAGTCAACGAGCTA
modifications: aptamer; DNA, backbone and methylation of C not given here
On to B7, for which the “Binding activity by Biacore” value with autotaxin [3] is “+ (not less than that)”. In addition, half-maximal inhibition with autotaxin [2] (setting [4]) (IC50) required 11 ± 5 nM.

B8: 23 (nucleic acid)
chain: ACACTCACAGGCGCTGGCACGGACCGGAACCGGGACGCTCGGTCGACCGTGCATGGCCGCTAGT
modifications: aptamer; DNA, backbone and methylation of C not given here
B8: in the data set with autotaxin [1], the “Binding activity by Biacore” value is on record as “+ (not less than that)”. The molecule further had an IC50 with autotaxin [2] (Table 3) of 75 nM.

B9: 6 (nucleic acid)
chain: GTGGTCTAGCTGTACTCGGAACCGTACTCAACGGTCAGTACCTTTGCGCCGCAGCAAGCCACAGTCAACGAGCTA
modifications: DNA, backbone and methylation of C not given here
B9: the “Binding activity by Biacore” value in the data set with autotaxin [3] is “+ (not less than that)”. In the data set with autotaxin [2] (setting [4]), this molecule returned an IC50 of 20 nM.

B10: 20 (nucleic acid)
chain: ACACTCACAGGCGCTGGGGTACGCTCGGAACCGAGGCAATTGGTCAGCGTGCATGGCCGCTAGT
modifications: aptamer; DNA, backbone and methylation of C not given here
For the molecule B10, the “Binding activity by Biacore” value in the data set with autotaxin [1] is on record as “+ (not less than that)”. In the data set with autotaxin [2] (Table 3), this molecule gave an IC50 of 37 ± 2 nM.

B11: 4 (nucleic acid)
chain: GTGGTCTAGCTGTACTCTCCGGAACCAGAGCAATTTGGTCGAGCGCTATCGGATGGTCCACAGTCAACGAGCTA
modifications: aptamer; DNA, backbone and methylation of C not given here
Take B11: the “Binding activity by Biacore” value in the data set with autotaxin [3] is reported as “+ (not less than that)”. Besides, the IC50 in the data set with autotaxin [2] (setting [4]) is 16 ± 6 nM.

B12: 10 (nucleic acid)
chain: GTGGTCTAGCTGTACTCGCCGGAACCGTACTATGGTCGCGTTGTATGACGCTTGTATCCACAGTCAACGAGCTA
modifications: aptamer; DNA, backbone and methylation of C not given here
Turning to B12, the “Binding activity by Biacore” value with autotaxin [3] is “+ (not less than that)”. In the data set with autotaxin [2] (setting [4]), this molecule came in with an IC50 of 21 ± 6 nM.

These data come from patent US20170137818A1, “APTAMER INHIBITING BIOLOGICAL ACTIVITY OF AUTOTAXIN BY BINDING WITH AUTOTAXIN, AND USE THEREOF” (RIBOMIC INC., priority 2014, published 2017).
